Like-named read-outs stand apart in the source and are kept apart here. Starred links: 1 amine or outer side, 2 acyl side, 3 side chain; linkers in the order of their positions; H or OH if unused. Positions of bridges follow the written chain, without caps; N, C: chain ends. Non-standard residues stand in square brackets, D forms with d. *: point of attachment. C20 diacid = O=C(O)CCCCCCCCCCCCCCCCCCC(=O)*; C18 diacid = O=C(O)CCCCCCCCCCCCCCCCC(=O)*; γGlu = O=C(O)[C@H](CCC(=O)[*:2])N[*:1]; Orn = NCCC[C@H](N)C(=O)O; AEEA = NCCOCCOCC(=O)O
Assays:
Assay in all cases: cell-based or functional assay
[1] = molecular target: T1, human amylin 3(a) receptor (human calcitonin receptor co-expressed with RAMP-3) (human) (UniProt P30988)
T1 sequence (looked up) 1: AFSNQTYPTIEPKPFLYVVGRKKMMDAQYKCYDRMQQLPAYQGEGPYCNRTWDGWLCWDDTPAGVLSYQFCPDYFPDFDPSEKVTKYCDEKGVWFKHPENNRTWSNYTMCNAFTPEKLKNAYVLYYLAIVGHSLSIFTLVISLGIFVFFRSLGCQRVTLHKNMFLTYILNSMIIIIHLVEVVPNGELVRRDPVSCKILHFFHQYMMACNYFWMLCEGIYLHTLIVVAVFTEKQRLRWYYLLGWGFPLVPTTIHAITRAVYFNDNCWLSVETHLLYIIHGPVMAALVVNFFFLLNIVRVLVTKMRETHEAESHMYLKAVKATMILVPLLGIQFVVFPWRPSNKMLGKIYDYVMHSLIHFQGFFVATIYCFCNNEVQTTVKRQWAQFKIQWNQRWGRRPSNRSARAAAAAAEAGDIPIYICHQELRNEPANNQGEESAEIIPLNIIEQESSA
T1 sequence (looked up) 2: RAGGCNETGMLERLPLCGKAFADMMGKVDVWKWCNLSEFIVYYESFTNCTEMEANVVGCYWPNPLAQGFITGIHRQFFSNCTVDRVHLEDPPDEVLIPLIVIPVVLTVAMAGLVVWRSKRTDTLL

[2] = molecular target: T1, human amylin 3(a) receptor (human calcitonin receptor co-expressed with RAMP-3) (human); remark: listed apart in the source
[3] = molecular target: T2, human amylin 3(a) receptor (human calcitonin receptor + RAMP-3) (human) (UniProt P30988)
T2 sequence (looked up) 1: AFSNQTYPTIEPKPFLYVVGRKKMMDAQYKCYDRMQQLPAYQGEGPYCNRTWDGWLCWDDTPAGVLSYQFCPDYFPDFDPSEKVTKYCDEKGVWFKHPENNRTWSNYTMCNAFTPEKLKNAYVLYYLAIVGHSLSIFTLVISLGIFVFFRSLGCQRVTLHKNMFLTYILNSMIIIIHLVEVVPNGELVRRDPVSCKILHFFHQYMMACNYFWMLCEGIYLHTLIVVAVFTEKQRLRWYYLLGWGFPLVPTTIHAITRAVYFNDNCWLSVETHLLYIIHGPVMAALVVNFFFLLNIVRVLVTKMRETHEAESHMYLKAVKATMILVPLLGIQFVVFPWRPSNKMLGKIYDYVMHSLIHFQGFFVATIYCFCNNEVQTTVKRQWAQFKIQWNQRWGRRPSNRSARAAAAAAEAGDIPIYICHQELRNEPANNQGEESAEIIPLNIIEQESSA
T2 sequence (looked up) 2: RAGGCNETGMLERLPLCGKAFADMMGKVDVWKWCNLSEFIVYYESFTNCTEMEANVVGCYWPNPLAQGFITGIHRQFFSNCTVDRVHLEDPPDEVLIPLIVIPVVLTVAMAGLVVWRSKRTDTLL

[4] = molecular target: T3, human amylin 3(a) receptor (human calcitonin receptor with RAMP-3) (human) (UniProt P30988)
T3 sequence (looked up) 1: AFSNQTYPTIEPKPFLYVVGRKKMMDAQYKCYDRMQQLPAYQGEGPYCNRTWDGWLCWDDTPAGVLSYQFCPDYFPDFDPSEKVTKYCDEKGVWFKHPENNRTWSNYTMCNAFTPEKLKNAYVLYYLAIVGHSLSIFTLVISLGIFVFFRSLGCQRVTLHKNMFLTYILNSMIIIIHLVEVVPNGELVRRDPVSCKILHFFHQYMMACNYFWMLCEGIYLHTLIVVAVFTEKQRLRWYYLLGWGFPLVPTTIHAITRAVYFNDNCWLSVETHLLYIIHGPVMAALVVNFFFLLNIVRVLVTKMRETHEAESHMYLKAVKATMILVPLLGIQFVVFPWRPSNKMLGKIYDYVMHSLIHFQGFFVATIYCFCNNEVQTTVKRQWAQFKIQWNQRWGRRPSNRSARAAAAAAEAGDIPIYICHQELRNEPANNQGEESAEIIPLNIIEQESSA
T3 sequence (looked up) 2: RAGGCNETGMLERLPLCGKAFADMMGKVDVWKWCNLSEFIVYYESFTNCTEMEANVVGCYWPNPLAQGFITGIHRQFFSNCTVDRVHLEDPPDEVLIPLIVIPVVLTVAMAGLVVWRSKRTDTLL

[5] = molecular target: T4, human calcitonin (a) receptor (human) (UniProt P30988)
T4 sequence (looked up): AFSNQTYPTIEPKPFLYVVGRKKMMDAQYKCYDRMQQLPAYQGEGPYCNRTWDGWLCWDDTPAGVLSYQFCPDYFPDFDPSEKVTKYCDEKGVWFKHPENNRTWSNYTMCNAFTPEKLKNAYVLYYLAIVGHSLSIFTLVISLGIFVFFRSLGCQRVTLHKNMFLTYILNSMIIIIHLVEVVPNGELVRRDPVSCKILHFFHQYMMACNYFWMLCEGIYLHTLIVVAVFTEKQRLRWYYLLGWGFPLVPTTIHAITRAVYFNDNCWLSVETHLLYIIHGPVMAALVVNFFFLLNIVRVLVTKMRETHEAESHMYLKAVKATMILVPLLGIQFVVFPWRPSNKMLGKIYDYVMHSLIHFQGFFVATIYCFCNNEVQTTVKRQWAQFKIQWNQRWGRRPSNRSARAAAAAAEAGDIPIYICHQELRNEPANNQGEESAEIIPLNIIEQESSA

Amylin receptor human = molecular target: T5, Amylin receptor human (human, UniProt P30988 25-474; O60896 24-148, limits assumed)
T5 sequence (looked up) 1: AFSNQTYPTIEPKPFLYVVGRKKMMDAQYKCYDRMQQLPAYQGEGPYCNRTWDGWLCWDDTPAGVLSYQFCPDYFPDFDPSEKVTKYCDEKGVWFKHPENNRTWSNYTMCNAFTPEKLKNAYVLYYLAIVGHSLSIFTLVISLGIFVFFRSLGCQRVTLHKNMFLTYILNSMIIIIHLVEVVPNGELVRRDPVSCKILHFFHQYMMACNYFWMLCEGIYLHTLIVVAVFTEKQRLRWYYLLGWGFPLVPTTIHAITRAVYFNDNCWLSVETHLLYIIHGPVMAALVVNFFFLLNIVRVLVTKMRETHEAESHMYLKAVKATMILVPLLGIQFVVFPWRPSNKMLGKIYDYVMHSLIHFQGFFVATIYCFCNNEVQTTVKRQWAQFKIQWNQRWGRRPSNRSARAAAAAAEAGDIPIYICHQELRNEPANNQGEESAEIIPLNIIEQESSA
T5 sequence (looked up) 2: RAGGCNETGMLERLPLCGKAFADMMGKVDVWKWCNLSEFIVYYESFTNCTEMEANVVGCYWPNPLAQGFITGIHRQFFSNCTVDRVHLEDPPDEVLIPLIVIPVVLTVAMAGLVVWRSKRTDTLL

human amylin receptor = molecular target: T6, human amylin receptor (human, UniProt P30988 25-474; O60896 24-148, limits assumed)
T6 sequence (looked up) 1: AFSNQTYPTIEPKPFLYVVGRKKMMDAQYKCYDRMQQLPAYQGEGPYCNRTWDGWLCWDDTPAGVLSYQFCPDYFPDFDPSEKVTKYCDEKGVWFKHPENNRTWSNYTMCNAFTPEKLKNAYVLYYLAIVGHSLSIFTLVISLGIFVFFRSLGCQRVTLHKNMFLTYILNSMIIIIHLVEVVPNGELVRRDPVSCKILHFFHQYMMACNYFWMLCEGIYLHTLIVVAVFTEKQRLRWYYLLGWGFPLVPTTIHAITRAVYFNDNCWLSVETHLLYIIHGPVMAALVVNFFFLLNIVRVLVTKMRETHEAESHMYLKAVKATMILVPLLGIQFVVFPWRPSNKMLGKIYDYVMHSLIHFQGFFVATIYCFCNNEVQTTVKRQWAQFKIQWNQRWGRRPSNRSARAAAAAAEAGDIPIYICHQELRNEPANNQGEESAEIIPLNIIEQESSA
T6 sequence (looked up) 2: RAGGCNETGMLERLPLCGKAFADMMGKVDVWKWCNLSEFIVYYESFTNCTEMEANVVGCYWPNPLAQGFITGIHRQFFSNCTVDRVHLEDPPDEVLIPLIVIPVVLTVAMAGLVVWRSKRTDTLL

[6] = molecular target: T7, human amylin 3(a) receptor (human calcitonin receptor co-expressed with RAMP-3) (human, UniProt P30988 25-474; O60896 24-148)
T7 sequence (looked up) 1: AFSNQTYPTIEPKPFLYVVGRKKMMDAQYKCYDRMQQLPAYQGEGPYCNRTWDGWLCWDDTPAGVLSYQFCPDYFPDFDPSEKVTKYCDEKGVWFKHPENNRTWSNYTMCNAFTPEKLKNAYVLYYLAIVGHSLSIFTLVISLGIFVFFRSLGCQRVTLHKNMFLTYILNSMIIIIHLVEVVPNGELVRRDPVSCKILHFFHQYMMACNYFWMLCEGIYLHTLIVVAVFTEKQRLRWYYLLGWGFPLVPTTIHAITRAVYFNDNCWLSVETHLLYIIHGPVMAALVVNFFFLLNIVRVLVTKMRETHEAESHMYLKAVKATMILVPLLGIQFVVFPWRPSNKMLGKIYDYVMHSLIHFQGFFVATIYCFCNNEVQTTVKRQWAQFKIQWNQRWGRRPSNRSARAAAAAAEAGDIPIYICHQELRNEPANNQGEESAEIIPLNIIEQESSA
T7 sequence (looked up) 2: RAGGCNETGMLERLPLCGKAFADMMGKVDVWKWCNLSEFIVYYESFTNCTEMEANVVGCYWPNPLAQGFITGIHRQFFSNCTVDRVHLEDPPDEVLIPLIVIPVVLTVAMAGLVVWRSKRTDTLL

Row | Binder | Amylin receptor human EC50 (pM) [1] [pM] | Amylin receptor human EC50 (pM) [2] [pM] | Amylin receptor human EC50 [3] [nM] | Amylin receptor human EC50 (pM) [4] [pM] | CTa receptor human EC50 [5] [nM] | CTa receptor human EC50 (pM) [5] [pM] | Amylin receptor human EC50 (pM) (Amylin receptor human) | Amylin receptor human EC50 (pM) (human amylin receptor) | Amylin receptor human EC50 (pM) [6] [pM]
1 | {C20 diacid-γGlu}-SSGSSGHCNTATCATQRLAEFLHHSSNNFGPILPPTNVGSNTY-NH2 (disulfide 8-13) | 306 | 306 | 0.305 | 306 | 0.669 | 669 |  |  | 
2 | {C20 diacid-γGlu}-SSGSSGCNTATCATQRLAEFLHHSSNNFGPILPPTNVGSNTY-NH2 (disulfide 7-12) | 253 |  | 0.253 | 253 | 0.432 | 432 |  |  | 
3 | {C20 diacid}-EERECNTATCATQRLAEFLHHSSNNFGPILPPTNVGSNTP-NH2 (disulfide 5-10; SMILES CC[C@H](C)[C@H](NC(=O)[C@@H]1CCCN1C(=O)CNC(=O)[C@H](Cc1ccccc1)NC(=O)[C@H](CC(N)=O)NC(=O)[C@H](CC(N)=O)NC(=O)[C@H](CO)NC(=O)[C@H](CO)NC(=O)[C@H](Cc1c[nH]cn1)NC(=O)[C@H](Cc1c[nH]cn1)NC(=O)[C@H](CC(C)C)NC(=O)[C@H](Cc1ccccc1)NC(=O)[C@H](CCC(=O)O)NC(=O)[C@H](C)NC(=O)[C@H](CC(C)C)NC(=O)[C@H](CCCNC(=N)N)NC(=O)[C@H](CCC(N)=O)NC(=O)[C@@H](NC(=O)[C@H](C)NC(=O)[C@@H]1CSSC[C@H](NC(=O)[C@H](CCC(=O)O)NC(=O)[C@H](CCCNC(=N)N)NC(=O)[C@H](CCC(=O)O)NC(=O)[C@H](CCC(=O)O)NC(=O)CCCCCCCCCCCCCCCCCCC(=O)O)C(=O)N[C@@H](CC(N)=O)C(=O)N[C@@H]([C@@H](C)O)C(=O)N[C@@H](C)C(=O)N[C@@H]([C@@H](C)O)C(=O)N1)[C@@H](C)O)C(=O)N[C@@H](CC(C)C)C(=O)N1CCC[C@H]1C(=O)N1CCC[C@H]1C(=O)N[C@H](C(=O)N[C@@H](CC(N)=O)C(=O)N[C@H](C(=O)NCC(=O)N[C@@H](CO)C(=O)N[C@@H](CC(N)=O)C(=O)N[C@H](C(=O)N1CCC[C@H]1C(N)=O)[C@@H](C)O)C(C)C)[C@@H](C)O) [N-alpha-(19-carboxynonadecanoyl)-Glu-Glu-Arg-[Glu1,Glu14,His17,Pro37]-pramlintide] | 288 | 288 | 0.288 | 288 | 0.443 | 443 | 288 | 288 | 
4 | {C18 diacid-γGlu-AEEA-AEEA}-[dR][dR][Orn]CNTATCATQRLAEFLHRSSNNFGPILPPTNVGSNTY-NH2 (disulfide 4-9 (inferred)) |  |  |  |  |  |  |  |  | 29.5

— patent US20130005646A1 (Novo Nordisk, published 2013)
